Measurements from article PMC3944234.

Target: GAL4-Nef (HIV-1 Nef fused to the GAL4 DNA-binding domain) (HIV-1)
Test: two-hybrid

Substance “VP16-eEF1A (eEF1A fused to the VP16 activation domain) (from UniProt P68104 1-462) (natural protein)” has a relative luciferase expression of 1850 r.l.u.
